Test results reported in patent US20180245061A1, “Modified Heterocyclase” (THE UNIVERSITY COURT OF THE UNIVERSITY OF ABERDEEN, priority 2014, published 2018).

Tests used:
PatE' L29R = biological target: T1, PatE' L29R; test: ITC, 20 C
T1 construct: Point mutant of PatE'
T1 peptide: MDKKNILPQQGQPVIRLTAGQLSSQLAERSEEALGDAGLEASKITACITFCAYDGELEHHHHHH

PatE' E31R = biological target: T2, PatE' E31R; test: ITC, 20 C
T2 construct: Point mutant of PatE'
T2 peptide: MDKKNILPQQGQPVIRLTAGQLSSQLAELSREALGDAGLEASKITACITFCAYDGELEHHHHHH

PatE' L26R [1] = biological target: T3, PatE' L26R; test: ITC, 20 C
T3 peptide: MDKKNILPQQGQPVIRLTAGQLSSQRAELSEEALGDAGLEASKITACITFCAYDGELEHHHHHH

[2] = biological target: the molecule itself; test: X-ray crystal structures; gel filtration suggested a dimer
PatE' C51A = biological target: T4, PatE' C51A; test: X-ray co-crystal structures LynD/ATP/PatE'C51A (2.14 A) and LynD/beta,gamma-imido-ATP/PatE'C51A (3.01 A)
T4 peptide: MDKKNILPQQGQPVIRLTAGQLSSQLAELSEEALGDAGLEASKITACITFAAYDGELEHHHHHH

[3] = biological target: T5, PatE' (precursor peptide PatE variant, 64 amino acids, full leader, single core peptide ITACITFC, C-terminal …); test: ITC, 20 C, one-site model with stoichiometry set to 1; LynD in the cell, peptide in the syringe
T5 peptide: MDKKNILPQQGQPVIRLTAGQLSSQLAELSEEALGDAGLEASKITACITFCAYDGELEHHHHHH

PatE' E32R [4] = biological target: T6, PatE' E32R; test: as above
T6 construct: Point mutant of PatE'
T6 peptide: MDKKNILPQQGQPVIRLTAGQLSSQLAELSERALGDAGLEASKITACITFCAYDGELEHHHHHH

[5] = biological target: T7, minimal leader LAELSEEAL synthetic peptide
T7 chain: LAELSEEAL

[6] = biological target: T8, full-length PatE'4 leader peptide (tryptic fragment of PatE' D2Y, K3E, K4E, R16E)
T8 chain: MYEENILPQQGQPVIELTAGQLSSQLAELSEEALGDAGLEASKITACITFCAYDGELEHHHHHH

PatE′ = test: Heterocyclization reaction with PatE′, MS analysis; assay type: biochemical; settings: 2 μM enzyme, 5 mM ATP, 5 mM MgCl2, 16 h at 37° C.; TABLE 2
Protocol: (§1) For all heterocyclization reactions, […] PatE′ (and variants,) was incubated with 2 μM enzyme in 150 mM NaCl, 10 mM HEPES pH 7.4, 1 mM TCEP, 5 mM ATP and 5 mM MgCl2 for 16 h at 37° C. Samples were analyzed by ESI or MALDI MS (LCT, Micromass or 4800 MALDI TOF/TOF Analyzer, ABSciex). For cis trans activation studies, 100 μM ITACITFCAYDG synthetic test peptide (Peptide Protein Research Ltd) was reacted with 5 μM heterocyclase enzyme in the presence and absence of 5.5 μM LAELSEEAL synthetic peptide, or 5.5 μM full-length PatE′4 leader peptide. The reaction was carried out in 150 mM NaCl, 10 mM HEPES pH 7.4, 1 mM TCEP, 5 mM ATP and 5 mM MgCl2 for 16 h at 37° C. and analyzed as above. Synthetic peptides were purchased from Peptide Protein Research Ltd.

PatE′ L26R = test: Heterocyclization reaction with PatE′ L26R; assay type: biochemical; settings: 2 μM enzyme, 5 mM ATP, 5 mM MgCl2, 16 h at 37° C.
Protocol: as §1

[7] = biological target: T5, PatE' (precursor peptide PatE variant, …); test: ITC, 20 C, one-site model with stoichiometry set to 1; LynD mutant in the cell, peptide in the syringe
PatE' L26R [8] = biological target: T3, PatE' L26R; test: as above
PatE' E32R [9] = biological target: T6, PatE' E32R; test: as above
PatE′ E32R = test: Heterocyclization reaction with PatE′ E32R; assay type: biochemical; settings: 2 μM enzyme, 5 mM ATP, 5 mM MgCl2, 16 h at 37° C.
Protocol: as §1

full-length PatE = test: Heterocyclization of full length PatE substrate (core sequence ITVCISVC), MALDI-TOF-MS; assay type: biochemical; settings: MALDI-TOF-MS (FIG. 9)
From the text: Reaction Zoomed view with reaction products identified. The mass of the starting material is 6983.8 Da.

B1: LynD heterocyclase, full-length (Lyngbya sp. PCC 8106) (enzyme)
chain: MQSTPLLQIQPHFHVEVIEPKQVYLLGEQANHALTGQLYCQILPLLNGQYTLEQIVEKLDGEVPPEYIDYVLERLAEKGYLTEAAPELSSEVAAFWSELGIAPPVAAEALRQPVTLTPVGNISEVTVAALTTALRDIGISVQTPTEAGSPTALNVVLTDDYLQPELAKINKQALESQQTWLLVKPVGSVLWLGPVFVPGKTGCWDCLAHRLRGNREVEASVLRQKQAQQQRNGQSGSVIGCLPTARATLPSTLQTGLQFAATEIAKWIVKYHVNATAPGTVFFPTLDGKIITLNHSILDLKSHILIKRSQCPTCGDPKILQHRGFEPLKLESRPKQFTSDGGHRGTTPEQTVQKYQHLISPVTGVVTELVRITDPANPLVHTYRAGHSFGSATSLRGLRNTLKHKSSGKGKTDSQSKASGLCEAVERYSGIFQGDEPRKRATLAELGDLAIHPEQCLCFSDGQYANRETLNEQATVAHDWIPQRFDASQAIEWTPVWSLTEQTHKYLPTALCYYHYPLPPEHRFARGDSNGNAAGNTLEEAILQGFMELVERDGVALWWYNRLRRPAVDLGSFNEPYFVQLQQFYRENDRDLWVLDLTADLGIPAFAGVSNRKTGSSERLILGFGAHLDPTIAILRAVTEVNQIGLELDKVPDENLKSDATDWLITEKLADHPYLLPDTTQPLKTAQDYPKRWSDDIYTDVMTCVNIAQQAGLETLVIDQTRPDIGLNVVKVTVPGMRHFWSRFGEGRLYDVPVKLGWLDEPLTEAQMNPTPMPF
notes: also called native LynD; cyanobactin heterocyclase LynD
B1: no binding (PatE' L29R); no binding (PatE' E31R); no binding (PatE' L26R [1]). For the same molecule, the binding result [2] was “binds”, the binding result (PatE' C51A) was “binds” and the Kd [3] was 1.49 µM. For the same molecule, the Kd (PatE' E32R [4]) was 18.4 µM, the “acceleration of the turnover of the test peptide […] (trans activation, MALDI TOF MS time course)” value [5] was 6.7- and 5.0-fold, respectively and the “acceleration of the turnover of the test peptide […] (trans activation, MALDI TOF MS time course)” value [6] was 6.7- and 5.0-fold, respectively.

B2: LynD Y67D (enzyme)
chain: MQSTPLLQIQPHFHVEVIEPKQVYLLGEQANHALTGQLYCQILPLLNGQYTLEQIVEKLDGEVPPEDIDYVLERLAEKGYLTEAAPELSSEVAAFWSELGIAPPVAAEALRQPVTLTPVGNISEVTVAALTTALRDIGISVQTPTEAGSPTALNVVLTDDYLQPELAKINKQALESQQTWLLVKPVGSVLWLGPVFVPGKTGCWDCLAHRLRGNREVEASVLRQKQAQQQRNGQSGSVIGCLPTARATLPSTLQTGLQFAATEIAKWIVKYHVNATAPGTVFFPTLDGKIITLNHSILDLKSHILIKRSQCPTCGDPKILQHRGFEPLKLESRPKQFTSDGGHRGTTPEQTVQKYQHLISPVTGVVTELVRITDPANPLVHTYRAGHSFGSATSLRGLRNTLKHKSSGKGKTDSQSKASGLCEAVERYSGIFQGDEPRKRATLAELGDLAIHPEQCLCFSDGQYANRETLNEQATVAHDWIPQRFDASQAIEWTPVWSLTEQTHKYLPTALCYYHYPLPPEHRFARGDSNGNAAGNTLEEAILQGFMELVERDGVALWWYNRLRRPAVDLGSFNEPYFVQLQQFYRENDRDLWVLDLTADLGIPAFAGVSNRKTGSSERLILGFGAHLDPTIAILRAVTEVNQIGLELDKVPDENLKSDATDWLITEKLADHPYLLPDTTQPLKTAQDYPKRWSDDIYTDVMTCVNIAQQAGLETLVIDQTRPDIGLNVVKVTVPGMRHFWSRFGEGRLYDVPVKLGWLDEPLTEAQMNPTPMPF
For B2, the “No. of heterocycles, peptide PatE′” value (PatE′) was 2, the “No. of heterocycles, peptide PatE′ L26R” value (PatE′ L26R) was 2 and the Kd [7] was 12.9 µM. It also gave a Kd (PatE' L26R [8]) of 15.2 µM.

B3: LynD R399E (enzyme)
chain: MQSTPLLQIQPHFHVEVIEPKQVYLLGEQANHALTGQLYCQILPLLNGQYTLEQIVEKLDGEVPPEYIDYVLERLAEKGYLTEAAPELSSEVAAFWSELGIAPPVAAEALRQPVTLTPVGNISEVTVAALTTALRDIGISVQTPTEAGSPTALNVVLTDDYLQPELAKINKQALESQQTWLLVKPVGSVLWLGPVFVPGKTGCWDCLAHRLRGNREVEASVLRQKQAQQQRNGQSGSVIGCLPTARATLPSTLQTGLQFAATEIAKWIVKYHVNATAPGTVFFPTLDGKIITLNHSILDLKSHILIKRSQCPTCGDPKILQHRGFEPLKLESRPKQFTSDGGHRGTTPEQTVQKYQHLISPVTGVVTELVRITDPANPLVHTYRAGHSFGSATSLRGLENTLKHKSSGKGKTDSQSKASGLCEAVERYSGIFQGDEPRKRATLAELGDLAIHPEQCLCFSDGQYANRETLNEQATVAHDWIPQRFDASQAIEWTPVWSLTEQTHKYLPTALCYYHYPLPPEHRFARGDSNGNAAGNTLEEAILQGFMELVERDGVALWWYNRLRRPAVDLGSFNEPYFVQLQQFYRENDRDLWVLDLTADLGIPAFAGVSNRKTGSSERLILGFGAHLDPTIAILRAVTEVNQIGLELDKVPDENLKSDATDWLITEKLADHPYLLPDTTQPLKTAQDYPKRWSDDIYTDVMTCVNIAQQAGLETLVIDQTRPDIGLNVVKVTVPGMRHFWSRFGEGRLYDVPVKLGWLDEPLTEAQMNPTPMPF
notes: Point mutant of LynD
With B3 the “No. of heterocycles, peptide PatE′” value (PatE′) was 2, the Kd [7] was 10.7 µM and the Kd (PatE' E32R [9]) was 8.55 µM. The “No. of heterocycles, peptide PatE′ E32R” value (PatE′ E32R) was 2.

B4: MicD-Q21-5G: fused-MicD: leader from Q21, 5 GA repeats linker, KL, MicD (SEQ ID NO: 40) (protein)
chain: MSHHHHHHDYDENLYFQGSQLSSQLAELSEEALGDAGAGAGAGAGAKLMQSTPLLQIQPHFHVEVIEPKQVYLLGEQANYALTGQLYCQILPLLDGQHSREQIVEKLDGEVPSEYIDYVLDRLAEKGYLTEAAPELSSEVAAFWSELGIAPPVAAEALRQSVTLTPVGNISEVTVAALTTALRDIGISVQTPTEAGSPTALNVVLTDDYLQPELAKINKQALESQQTWLLVKPVGSVLWLGPVFVPGKTGCWDCLAHRLRGNREVEASVLQQKQAQQQRNGQSGSVIGCLPTARATLPSTLQTGLQFAATEIAKWIVKHHVKATAPGTVFFPTLDGKIITFNHTVIDLKSHVLVRRSQCPSCGDRQILHRQGFEPVKLVSRRKHFTHDGGHRAFTPEQTVQKYQHLVSPITGVVTELVRLTDPANPLVHTYKAGHAFGSATTLRGLRNTLKYKSSGKGKTDIQSRASGLCEAIERYSGIFQGDEPRKRATLAELGDLALHPESLLYFSNTQYANREELNAQGSAAAYRWIPNRFDVSQAIDWTPVWSLTEQKHKYVPTAFCYYGYPLPEEQRFCKADSNGNAAGNTLEEAILQGFLELVERDSIAMWWYNRIRRPAVDLSTFDEPYFVDLQQFYQQQNRELWVLDVTADLGIPAFAGFSRRTVGTSERISIGFGAHLDPTIAILRALTEVSQVGLELDKIPDDKLDGESKDWMLNVTVENHPWLAPDPSVPMKTASDYPKRWSDDIHTDVMNCVKTAQTAGLEVMVLDQTRPDIGLNVVKVIIPGMRTFWTRFGQGRLYDIPVKLGWLDAPLAEEELNQTNIPF
modifications: Modified heterocyclase MicroD_Q21_5GA
B4 was tested, and the “heterocyclization of full-length PatE” value (full-length PatE) was “inefficiently and produce a mixture of different heterocyclic species”.
